Assay results: US8242083B2, “Kinase substrates” (PerkinElmer Health Sciences, Inc., priority 2008, dated 2012)

Assays:
Type in all cases: biochemical
[1] = target: T1, TNK1 (Homo sapiens, UniProt Q13470); assay: TR-FRET kinase assay, TNK1; conditions: Kinase Concentration 1 nM; 50 nM ULight-labeled substrate, 200 micromolar ATP, 2 hours
T1 sequence (Q13470 1-666): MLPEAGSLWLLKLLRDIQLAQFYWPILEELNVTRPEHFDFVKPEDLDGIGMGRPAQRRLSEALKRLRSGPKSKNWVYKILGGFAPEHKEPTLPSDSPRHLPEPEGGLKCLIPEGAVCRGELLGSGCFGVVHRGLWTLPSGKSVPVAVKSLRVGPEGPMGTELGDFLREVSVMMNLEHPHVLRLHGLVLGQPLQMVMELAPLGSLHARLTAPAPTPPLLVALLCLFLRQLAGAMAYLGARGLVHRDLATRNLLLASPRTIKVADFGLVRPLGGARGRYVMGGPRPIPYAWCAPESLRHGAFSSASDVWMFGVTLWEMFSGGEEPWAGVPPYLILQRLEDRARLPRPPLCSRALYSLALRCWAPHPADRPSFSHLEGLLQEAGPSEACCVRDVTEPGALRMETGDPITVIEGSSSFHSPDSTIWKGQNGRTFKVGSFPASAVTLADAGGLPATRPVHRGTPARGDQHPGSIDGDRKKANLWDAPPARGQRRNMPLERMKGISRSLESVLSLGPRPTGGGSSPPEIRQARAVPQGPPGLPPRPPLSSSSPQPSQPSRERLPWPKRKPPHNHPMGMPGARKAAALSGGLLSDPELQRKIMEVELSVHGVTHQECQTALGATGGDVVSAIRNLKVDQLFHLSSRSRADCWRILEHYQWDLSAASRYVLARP
Experimental: (§1) TR-FRET kinase assays are performed under standardized conditions: various individual kinases are incubated with 50 nM of kinase substrate BRB1 labeled with the TR-FRET acceptor dye ULight (PerkinElmer) and 200 micromolar ATP in 10 μL of kinase assay buffer (50 mM HEPES pH7.5, 10 mM MgCl2, 3 mM MnCl2, 1 mM EGTA, 2 mM DTT and 0.01% Tween-20) for 2 hours at room temperature. Reactions are stopped with EDTA, and anti-phospho-tyrosine antibodies (clone PT66) labeled with the TR-FRET europium chelate donor dye are added to a final concentration of 2 nM in a final volume of 20 μL. The TR-FRET signal emitted at 665 nm is read one hour after the addition of antibodies using a TR-FRET plate reader such as the Envision® Multilabel Plate reader (PerkinElmer). The emitted signal at 665 nm is proportional to the extent of peptide phosphorylation, Control reactions indicative of background are performed excluding ATP from the reaction.
(§2) Assay conditions are identical to those used described for FIG. 1.

[2] = target: EphA2 (Homo sapiens, UniProt P29317); assay: TR-FRET kinase assay, EphA2; conditions: Kinase Concentration 0.25 nM; 50 nM ULight-labeled substrate, 200 micromolar ATP, 2 hours
Experimental: as §1, §2

[3] = target: RON (Homo sapiens, UniProt Q04912); assay: TR-FRET kinase assay, RON; conditions: Kinase Concentration 0.25 nM; 50 nM ULight-labeled substrate, 200 micromolar ATP, 2 hours
Experimental: as §1, §2

[4] = target: BRK (Homo sapiens, UniProt Q13882); assay: TR-FRET kinase assay, BRK; conditions: Kinase Concentration 3 nM; 50 nM ULight-labeled substrate, 200 micromolar ATP, 2 hours
Sequence of BRK (Q13882 whole entry, species assumed): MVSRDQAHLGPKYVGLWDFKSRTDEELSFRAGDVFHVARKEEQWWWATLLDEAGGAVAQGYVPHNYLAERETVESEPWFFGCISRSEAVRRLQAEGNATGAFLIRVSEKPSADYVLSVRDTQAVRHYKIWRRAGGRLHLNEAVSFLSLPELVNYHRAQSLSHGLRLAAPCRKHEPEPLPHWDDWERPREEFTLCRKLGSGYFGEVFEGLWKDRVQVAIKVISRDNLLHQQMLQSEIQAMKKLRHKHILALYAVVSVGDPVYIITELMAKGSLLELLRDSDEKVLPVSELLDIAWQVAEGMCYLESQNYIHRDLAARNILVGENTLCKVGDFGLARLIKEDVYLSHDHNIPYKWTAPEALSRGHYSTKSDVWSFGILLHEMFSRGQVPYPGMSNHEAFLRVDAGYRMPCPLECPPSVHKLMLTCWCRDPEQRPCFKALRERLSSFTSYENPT
Experimental: as §1, §2

[5] = target: T2, EphB3 (Homo sapiens, UniProt P54753); assay: TR-FRET kinase assay, EphB3; conditions: Kinase Concentration 0.1 nM; 50 nM ULight-labeled substrate, 200 micromolar ATP, 2 hours
T2 sequence (P54753 34-998): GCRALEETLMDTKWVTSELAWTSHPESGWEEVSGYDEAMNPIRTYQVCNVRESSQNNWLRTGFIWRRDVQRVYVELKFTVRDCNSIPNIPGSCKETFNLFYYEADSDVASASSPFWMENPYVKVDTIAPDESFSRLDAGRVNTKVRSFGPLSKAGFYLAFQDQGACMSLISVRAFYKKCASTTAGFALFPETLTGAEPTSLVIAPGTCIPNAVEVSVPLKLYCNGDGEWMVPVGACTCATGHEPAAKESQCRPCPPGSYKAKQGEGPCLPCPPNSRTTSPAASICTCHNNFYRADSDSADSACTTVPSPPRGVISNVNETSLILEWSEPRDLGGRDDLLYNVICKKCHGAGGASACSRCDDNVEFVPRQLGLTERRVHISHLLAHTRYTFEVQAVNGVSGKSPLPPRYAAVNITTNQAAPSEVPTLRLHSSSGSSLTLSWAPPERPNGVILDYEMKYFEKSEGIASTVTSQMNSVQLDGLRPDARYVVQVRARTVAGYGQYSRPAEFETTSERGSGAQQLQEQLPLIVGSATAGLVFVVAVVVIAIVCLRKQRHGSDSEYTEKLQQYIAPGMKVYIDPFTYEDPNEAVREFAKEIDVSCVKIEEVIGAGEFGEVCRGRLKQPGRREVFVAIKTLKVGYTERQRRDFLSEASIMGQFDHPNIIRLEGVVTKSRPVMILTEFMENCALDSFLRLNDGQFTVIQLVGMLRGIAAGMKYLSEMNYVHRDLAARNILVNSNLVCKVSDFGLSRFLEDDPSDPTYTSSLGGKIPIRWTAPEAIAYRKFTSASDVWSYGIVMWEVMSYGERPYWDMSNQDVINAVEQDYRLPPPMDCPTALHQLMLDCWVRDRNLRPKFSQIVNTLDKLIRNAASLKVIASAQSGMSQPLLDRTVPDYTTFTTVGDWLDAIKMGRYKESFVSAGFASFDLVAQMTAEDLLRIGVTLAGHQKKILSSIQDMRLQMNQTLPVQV
Experimental: as §1, §2

[6] = target: Eph4A tyrosine kinase (Homo sapiens, UniProt P54764); assay: Stability of TR-FRET signal at 665 nm in kinase assay; conditions: for Average Signal at 665 nm: Eph4A 2 nM, 50 nM labeled peptide or 200 nM labeled co-polymer, 50 micromolar ATP
Sequence of Eph4A tyrosine kinase (P54764 20-986): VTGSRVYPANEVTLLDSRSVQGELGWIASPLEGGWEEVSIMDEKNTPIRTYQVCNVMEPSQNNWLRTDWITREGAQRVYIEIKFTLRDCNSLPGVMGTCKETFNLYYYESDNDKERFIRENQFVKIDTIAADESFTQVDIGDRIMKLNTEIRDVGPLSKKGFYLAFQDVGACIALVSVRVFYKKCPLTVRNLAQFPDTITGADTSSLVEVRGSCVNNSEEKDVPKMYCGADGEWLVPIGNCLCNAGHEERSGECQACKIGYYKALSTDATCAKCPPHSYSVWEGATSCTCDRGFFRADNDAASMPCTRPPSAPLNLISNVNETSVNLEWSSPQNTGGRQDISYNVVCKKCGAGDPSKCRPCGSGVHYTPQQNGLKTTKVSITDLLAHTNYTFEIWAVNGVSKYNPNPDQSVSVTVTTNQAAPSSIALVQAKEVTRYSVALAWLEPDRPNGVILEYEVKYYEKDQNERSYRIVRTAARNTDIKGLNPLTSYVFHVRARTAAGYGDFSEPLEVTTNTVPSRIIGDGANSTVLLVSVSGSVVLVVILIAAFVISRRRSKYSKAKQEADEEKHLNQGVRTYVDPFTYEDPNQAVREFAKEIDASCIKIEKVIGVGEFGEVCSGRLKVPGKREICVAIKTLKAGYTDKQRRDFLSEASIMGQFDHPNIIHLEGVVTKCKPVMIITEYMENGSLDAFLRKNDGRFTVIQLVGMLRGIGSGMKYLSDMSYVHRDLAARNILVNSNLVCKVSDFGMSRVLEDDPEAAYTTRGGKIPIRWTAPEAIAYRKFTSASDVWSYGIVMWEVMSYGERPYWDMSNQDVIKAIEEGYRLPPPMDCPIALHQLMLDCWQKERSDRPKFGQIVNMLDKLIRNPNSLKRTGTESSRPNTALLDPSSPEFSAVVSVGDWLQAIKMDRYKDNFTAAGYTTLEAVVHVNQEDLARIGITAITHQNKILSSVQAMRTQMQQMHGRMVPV
Experimental: as §1
An assay comparing the stability of the random co-polymers poly-EAY, poly-EY and peptide BRB1 (SEQ ID No.3) is performed in 384-well format. Assay conditions are similar to those used in Example 1. The Eph4A tyrosine kinase is assayed at 2 nM with 50 nM of labeled peptide of SEQ ID No. 3, 200 nM labeled poly-EY or 200 nM poly-EAY and 50 micromolar ATP in 10 μL of kinase assay buffer. The reaction mixture is incubated for one hour at room temperature. Reactions are stopped with EDTA, and anti-phospho-tyrosine antibodies (clone PT66) labeled with the TR-FRET europium chelate donor dye are added to a concentration of 2 nM in a final volume of 20 μL. The TR-FRET signal emitted at 665 nm is read one, two, four, 18 and 24 hours after the addition of antibodies using a TR-FRET plate reader.

[7] = target: FLT4 (Homo sapiens, UniProt P35916); assay: TR-FRET kinase assay, FLT4; conditions: Kinase Concentration 0.25 nM; 50 nM ULight-labeled substrate, 200 micromolar ATP, 2 hours
Sequence of FLT4 (P35916 25-1363, species assumed): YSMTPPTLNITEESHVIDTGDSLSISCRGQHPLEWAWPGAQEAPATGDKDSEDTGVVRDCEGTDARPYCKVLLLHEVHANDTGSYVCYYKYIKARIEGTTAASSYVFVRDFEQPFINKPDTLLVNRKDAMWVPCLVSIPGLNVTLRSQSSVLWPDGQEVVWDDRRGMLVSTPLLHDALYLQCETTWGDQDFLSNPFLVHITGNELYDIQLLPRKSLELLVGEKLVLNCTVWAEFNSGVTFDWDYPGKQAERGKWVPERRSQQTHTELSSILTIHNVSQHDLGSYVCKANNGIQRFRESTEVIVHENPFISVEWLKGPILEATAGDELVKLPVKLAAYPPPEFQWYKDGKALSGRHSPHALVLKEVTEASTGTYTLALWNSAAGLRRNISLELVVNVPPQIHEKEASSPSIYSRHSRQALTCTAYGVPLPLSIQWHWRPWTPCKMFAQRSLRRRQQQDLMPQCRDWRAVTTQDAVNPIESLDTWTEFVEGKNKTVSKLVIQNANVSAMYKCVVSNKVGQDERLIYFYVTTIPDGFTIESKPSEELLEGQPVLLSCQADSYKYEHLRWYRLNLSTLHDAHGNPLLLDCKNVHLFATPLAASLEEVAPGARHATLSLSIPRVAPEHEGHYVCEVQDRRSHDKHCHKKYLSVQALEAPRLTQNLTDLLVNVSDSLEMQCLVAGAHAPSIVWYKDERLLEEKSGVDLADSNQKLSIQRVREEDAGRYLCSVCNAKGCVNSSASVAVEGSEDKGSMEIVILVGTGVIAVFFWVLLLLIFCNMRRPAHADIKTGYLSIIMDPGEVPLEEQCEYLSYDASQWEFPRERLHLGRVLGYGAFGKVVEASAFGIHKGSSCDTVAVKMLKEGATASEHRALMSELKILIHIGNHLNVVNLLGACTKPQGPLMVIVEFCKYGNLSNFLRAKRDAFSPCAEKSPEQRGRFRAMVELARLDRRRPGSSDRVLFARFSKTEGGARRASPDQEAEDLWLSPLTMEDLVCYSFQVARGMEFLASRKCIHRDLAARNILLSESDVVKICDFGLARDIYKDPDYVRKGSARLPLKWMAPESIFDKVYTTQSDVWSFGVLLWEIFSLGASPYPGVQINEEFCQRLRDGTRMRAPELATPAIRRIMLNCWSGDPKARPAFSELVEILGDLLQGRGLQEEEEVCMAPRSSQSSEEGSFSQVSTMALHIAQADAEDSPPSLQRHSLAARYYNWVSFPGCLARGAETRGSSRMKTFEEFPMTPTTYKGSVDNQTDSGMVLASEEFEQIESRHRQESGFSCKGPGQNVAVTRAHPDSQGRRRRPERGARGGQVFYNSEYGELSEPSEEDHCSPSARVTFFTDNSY
Experimental: as §1, §2

C AYE AYE AYE K EYA EYA EYA K AYA EYE R (CAYEAYEAYEKEYAEYAEYAKAYAEYER; tyrosine kinase substrate peptide) [BRB1]
Signal to Noise ratio with BRB1 Peptide [1]: 6.8
Signal to Noise ratio with BRB1 Peptide [2]: 26.9
Signal to Noise ratio with BRB1 Peptide [3]: 3.5
Signal to Noise ratio with BRB1 Peptide [4]: 2.4
Signal to Noise ratio with BRB1 Peptide [5]: 24.7
Average Signal at 665 nm ([6]; Incubation 1 h after addition of antibodies): 134156
Average Signal at 665 nm ([6]; Incubation 18 h after addition of antibodies): 117226
% Decrease of average signal at 665 nm ([6]; Incubation 18 h versus 1 h): 12.6%
Average Signal at 665 nm ([6]; Incubation 24 h after addition of antibodies): 115534
% Decrease of average signal at 665 nm ([6]; Incubation 24 h versus 1 h): 13.9%
% Decrease of average signal at 665 nm ([6]; Incubation 24 h versus 1 h, listed as SEQ ID No. 3): 14%
Stability of specific TR-FRET signal at 665 nm over time ([6]; after addition of europium-labeled anti-phospho-tyrosine antibody): more stable
Signal to Noise ratio with BRB1 Peptide [7]: 20.0
